Experimental data reported in patent publication US20220144930A1.

Assays:
[1] = biological target: recombinant human VEGF165 protein (human) (UniProt P15692); experiment: ELISA; coated VEGF165 titrated 0.15-3000 ng/mL, antibody fixed at 1 µg/mL (EC50 is of the coating concentration)
[2] = biological target: recombinant human VEGF165 protein (human) (UniProt P15692); experiment: streptavidin-coated sensor with immobilized biotin-labeled VEGF165, antibody at several concentrations
[3] = biological target: recombinant human VEGF165 protein (human) (UniProt P15692); experiment: cell-based or functional assay
[4] = biological target: recombinant human VEGF165 protein (human) (UniProt P15692); experiment: streptavidin-coated sensor with immobilized biotin-labeled VEGF165; reference Avastin

EC50 [1]: 2.42 ng/mL
Kd [2]: 0.0195 nM
koff [2]: 6.7e-06 s⁻¹
kon [2]: 344000 M⁻¹ s⁻¹
EC50(nM), neutralizing VEGF165 at 10 ng/mL, HUVEC proliferation [3]: 0.14 nM
EC50(nM), neutralizing VEGF165 at 10 ng/mL, HUVEC proliferation (run against Avastin) [3]: 0.13 nM
EC50(nM), neutralizing VEGF165 at 100 ng/mL, HUVEC proliferation [3]: 1.34 nM
EC50(nM), neutralizing VEGF165 at 100 ng/mL, HUVEC proliferation (run against Avastin) [3]: 1.36 nM
EC50(nM), neutralizing VEGF165 at 1000 ng/mL, HUVEC proliferation [3]: 9.67 nM
EC50(nM), neutralizing VEGF165 at 1000 ng/mL, HUVEC proliferation (run against Avastin) [3]: 9.33 nM
maximum neutralization rate (%), VEGF165 at 10 ng/mL, HUVEC proliferation [3]: 100%
maximum neutralization rate (%), VEGF165 at 10 ng/mL, HUVEC proliferation (run against Avastin) [3]: 100%
maximum neutralization rate (%), VEGF165 at 100 ng/mL, HUVEC proliferation [3]: 102%
maximum neutralization rate (%), VEGF165 at 100 ng/mL, HUVEC proliferation (run against Avastin) [3]: 102%
maximum neutralization rate (%), VEGF165 at 1000 ng/mL, HUVEC proliferation [3]: 104%
maximum neutralization rate (%), VEGF165 at 1000 ng/mL, HUVEC proliferation (run against Avastin) [3]: 104%
fold affinity against Avastin [4]: 1.5 fold
B1: humanized antibody VEGF-H988 (antibody, human IgG1, kappa, V domains shown)
VH: QSVQESGPGLVKPSETLSLTCTVSGIDLSSYAISWVRQPPGKGLEYIGYIWNDLFTYYASWAKGRVTISVDTSKNQVDLKLSSVTAADTAVYFCARGTLGDYGGMDPWGQGTLVTVSS
VL: ELQLTQSPSSLSASVGDRVTITCQSSKFLWQGRRLAWYQQKPGKVPKLLIYGASTLASGVPSRFKGSGSGTDFTLTISSLQPEDVATYYCAGYKSYDGDVVGFGGGTKVEIKR
